The results in this text go back to patent US6680291.

The target in assay [1] is T1, human CNTF receptor alpha-component on MG87/CNTFR fibroblasts (human, UniProt P26992 23-342).
T1 construct: whole, on cells; Mouse fibroblast cell line transfected with the human CNTF alpha receptor gene; also called CNTFRalpha; MG87/huCNTFR
T1 sequence (looked up): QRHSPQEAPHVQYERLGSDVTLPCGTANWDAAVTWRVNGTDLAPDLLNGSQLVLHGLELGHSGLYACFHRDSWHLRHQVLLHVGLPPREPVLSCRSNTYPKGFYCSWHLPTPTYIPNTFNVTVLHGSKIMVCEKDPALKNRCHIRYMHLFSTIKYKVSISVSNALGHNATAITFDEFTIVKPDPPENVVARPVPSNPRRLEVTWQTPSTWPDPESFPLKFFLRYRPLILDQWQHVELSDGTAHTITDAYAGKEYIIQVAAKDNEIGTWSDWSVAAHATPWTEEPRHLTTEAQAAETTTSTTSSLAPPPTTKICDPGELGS
Description: competition with 125I-rat CNTF on MG87/CNTFR cells. On the procedure: (§1) Binding was performed directly on cell monolayers. Cells in culture wells were washed once with assay buffer consisting of phosphate buffered saline (PBS; pH 7.4), 0.1 mM bacitracin, 1 mM PMSF, 1 µg/ml leupeptin, and 1 mg/ml BSA. […] Non-specific binding was determined in the presence of 1,000-fold excess of unlabelled CNTF. Specific binding towards MG87/CNTFR was 80–90%. Data were analyzed using the […] program (ISI, Philadelphia, Pa.).

Assay [2] has as its target T2, rat CNTF receptor on rat superior cervical ganglia (SCG) neurons (rat, UniProt Q08406 23-342).
T2 construct: whole, on cells; The neurons carry the endogenous receptor, and the other receptor components may also be present; also called rat receptor
T2 sequence (looked up): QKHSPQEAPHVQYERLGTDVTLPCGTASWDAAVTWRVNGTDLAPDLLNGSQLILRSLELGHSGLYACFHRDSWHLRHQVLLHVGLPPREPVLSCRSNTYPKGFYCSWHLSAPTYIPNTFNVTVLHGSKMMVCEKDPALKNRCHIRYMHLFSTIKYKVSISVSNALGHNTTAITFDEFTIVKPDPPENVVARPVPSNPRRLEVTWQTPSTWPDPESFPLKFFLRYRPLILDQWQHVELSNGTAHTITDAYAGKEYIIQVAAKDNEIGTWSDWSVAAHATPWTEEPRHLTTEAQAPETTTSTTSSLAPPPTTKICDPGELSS
Nature of the assay: competition with 125I-rat CNTF on rat SCG neurons. The method, then: Growth medium consisted of Ham's nutrient mixture F12 with 10% heat-inactivated fetal bovine serum (Hyclone), nerve growth factor (NGF) (100 ng/ml), penicillin (50 U/ml) and streptomycin (50 µg/ml). Cultures were maintained at 37° C. in a humidified 95% air/5% CO_2 atmosphere. Ganglion non-neuronal cells were eliminated by treatment with araC (10 µM) on days 1 and 3 of culture. Cultures were fed 3 times/week and were routinely used for binding assays within 2 weeks.
as §1

Assay [3] addresses T1, human CNTF receptor alpha-component on …. Description: competition binding experiments, data not shown; cells not given.

Numbering of substitutions follows the chain as printed.

B1: recombinant rat CNTF (ligand)
chain: MAFAEQTPLTLHRRDLCSRSIWLARKIRSDLTALMESYVKHQGLNKNINLDSVDGVPVASTDRWSEMTEAERLQENLQAYRTFQGMLTKLLEDQRVHFTPTEGDFHQAIHTLMLQVSAFAYQLEELMVLLEQKIPENEADGMPATVGDGGLFEKKLWGLKVLQELSQWTVRSIHDLRVISSHQMGISALESHYGAKDKQM
notes: also called unlabelled rat CNTF
In the case of B1, the IC50 in assay [1] was found to be 2.8 nM; in assay [2], 0.28 nM.

B2: RPN186 (ligand)
chain: B1 chain with A4T, Q6H, T7S, L11P, M35T
notes: Chimeric CNTF
B2: in assay [3], the binding result was “binds”.

B3: RPN189 (ligand)
chain: B1 chain with V178F, M184T, S187P, L189R, E190G, G194I, K196N, D197N, Q199K
notes: Chimeric CNTF
Turning to B3, the binding result in assay [3] is “binds”.

B4: RPN192 (ligand)
chain: MAFTEHSPLTPHRRDLCSRSIWLARKIRSDLTALTESYVKHQGLNKNINLDSADGMPVASTDQWSELTEAERLQENLQAYRTFQGMLTKLLEDQRVHFTPTEGDFHQAIHTLMLQVSAFAYQLEELMVLLEQKIPENEADGMPATVGDGGLFEKKLWGLKVLQELSQWTVRSIHDLRFISSHQTGIPARGSHYIANNKKM
notes: Chimeric CNTF
For B4, the binding result in assay [3] is “binds”.

B5: recombinant human CNTF (ligand)
chain: MAFTEHSPLTPHRRDLCSRSIWLARKIRSDLTALTESYVKHQGLNKNINLDSADGMPVASTDQWSELTEAERLQENLQAYRTFHVLLARLLEDQQVHFTPTEGDFHQAIHTLLLQVAAFAYQIEELMILLEYKIPRNEADGMPINVGDGGLFEKKLWGLKVLQELSQWTVRSIHDLRFISSHQTGIPARGSHYIANNKKM
notes: also called rHCNTF; hCNTF
Consider B5, for which, in assay [1], the IC50 turned out to be 30 nM and the “fold less potent than rat CNTF” value was determined as 12 fold. Moreover, in assay [2], the IC50 was determined as 25 nM and the “fold less potent than unlabelled rat CNTF” value is 90 fold.

B6: RPN218 (ligand)
chain: B5 chain with T35M, A53V, M56V, Q63R, L67M
notes: Chimeric CNTF
For the molecule B6, the binding result in assay [3] is reported as “binds”.

B7: RPN187 (ligand)
chain: B5 chain with T4A, H6Q, S7T, P11L, T35M
notes: Chimeric CNTF
In the case of B7, the binding result in assay [3] is on record as “binds”.

B8: RPN222 (ligand)
chain: B5 chain with A53V, L67M
notes: Chimeric CNTF
With B8, the binding result in assay [3] was “binds”.

B9: RPN228 (ligand)
chain: B5 chain with Q63R
notes: Expressed in E. coli; also called RG228; rHCNTF,63QR
On to B9, for which, in assay [1], the IC50 was found to be 5.6 nM. That is a single-digit nanomolar value.

B10: RPN219 (ligand)
chain: B5 chain with A53V, M56V, Q63R, L67M
notes: Expressed in E. coli; also called CNTF RPN219
Consider B10, for which, in assay [2], the IC50 was 0.3 nM. This lies in the sub-nanomolar range.

A word on the IC50: it is the concentration needed to halve the response being measured. The low end stands for inhibition by little substance, the high end for a need for much substance.
